Results on one protein are retold here after ChEMBL document CHEMBL1140664, “Asymmetrical ligand binding by abscisic acid 8'-hydroxylase” (Bioorg Med Chem, 2007).

Substrate in the data set: CC1=CC(=O)CC(C)(C)[C@@]1(O)/C=C/C(C)=C\C(=O)O
The experiment in a line: Activity of Arabidopsis thaliana recombinant CYP707A3.

Usually Km stands for the substrate concentration at which the rate is half of its maximum.

B1: Abscisic acid 8'-hydroxylase 3 (Arabidopsis thaliana) (protein)
chain: MDFSGLFLTLSAAALFLCLLRFIAGVRRSSSTKLPLPPGTMGYPYVGETFQLYSQDPNVFFAAKQRRYGSVFKTHVLGCPCVMISSPEAAKFVLVTKSHLFKPTFPASKERMLGKQAIFFHQGDYHSKLRKLVLRAFMPDAIRNMVPHIESIAQESLNSWDGTQLNTYQEMKTYTFNVALISILGKDEVYYREDLKRCYYILEKGYNSMPINLPGTLFHKAMKARKELAQILANILSKRRQNPSSHTDLLGSFMEDKAGLTDEQIADNIIGVIFAARDTTASVLTWILKYLADNPTVLEAVTEEQMAIRKDKKEGESLTWEDTKKMPLTYRVIQETLRAATILSFTFREAVEDVEYEGYLIPKGWKVLPLFRNIHHNADIFSDPGKFDPSRFEVAPKPNTFMPFGSGIHSCPGNELAKLEISVLIHHLTTKYRWSIVGPSDGIQYGPFALPQNGLPIALERKP
On to B1, for which the Km was 0.71 µM.
